± gives the uncertainty stated by the source.
assay: amyloid nucleation score (Sup35N fusion, yeast selection) (log enrichment); library NNK1; higher = more nucleation; inactive = no reads after selection
How it was run: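 On medium lacking adenine and uracil, psi-negative yeast expressing peptides of 20 random codons fused to Sup35N were grown 7 days at 30°C after a 24-hour induction with 100 μM copper sulfate. Illumina sequencing of input and output plasmid inserts gave the reads, and sequences under 100 input reads were excluded. The nucleation score is the DiMSum log enrichment of output over input reads, centred on the mode score of non-aggregating sequences.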

| Substance | amyloid nucleation score |
| --- | --- |
| NLFSLYGSNFLSP | 1.97 ± 0.14 |
| NLFTTSSCNLIFSTICFD | 7.281 ± 0.067 |
| NLGVKDLNTI | -0.905 ± 0.4 |
| NLKVESPGNGSWICTLEWVW | 6.645 ± 0.054 |
| NLLLIMDFVGWV | 1.48 ± 0.56 |
| NLLTMDIERTGECIDFWVD | 0.008 ± 0.38 |
| NLMFSNGSNRSGF | 0.142 ± 0.38 |
| NLNFAAPKGGV | -0.735 ± 2.4 |
| NLSGDDFGVNEKTSRWCQWG | 0.397 ± 1.2 |
| NLSGRSLSRLIDLFNRFTC | 0.919 ± 0.29 |
| NLSLRLFVSLSLIMTVMRVP | -0.127 ± 0.4 |
| NLYMANGDVMCSREGAEQCS | 1.5 ± 0.14 |
| NMFNDVGDWTFNKGSFTGTV | -0.482 ± 0.41 |
| NMLGSFPLTVLRKAWCCGSL | 1.04 ± 0.57 |
| NMLSLSRAAWKRN | inactive |
| NMSCCSTPYNPWTSIVPNVM | 0.103 ± 0.39 |
| NMVSLMVDSELTFVSLICLE | 3.18 ± 0.064 |
| NNHFFMILYINKMVYMILKV | 0.38 ± 0.52 |
| NNLTVLIWVMPMDRI | 1.99 ± 0.39 |
| NNMRVLLRFLSVVLGSGEVR | 1.01 ± 0.67 |
| NNMRYTV | inactive |
| NNMWSILTAAWDHVCSWRSS | 1.77 ± 0.5 |

| Substance | amyloid nucleation score |
| --- | --- |
| NNSSHGCRNVRNSQMSFVPQ | -0.165 ± 0.75 |
| NPEILCRLKIPFSSCLDSAS | 0.341 ± 0.61 |
| NPFCFMMRTGRSGSGWVKRR | 0.088 ± 0.54 |
| NPFWWVRPL | 0.284 ± 0.81 |
| NPRPH | -0.601 ± 0.62 |
| NPSQIELRAFRTCMMYCGS | inactive |
| NQFMHGTETYFEDINALVWG | 1.43 ± 0.66 |
| NQYSFRGLS | inactive |
| NRALGMRGVIGPSVWYVVP | 0.534 ± 0.26 |
| NRARPLVSFMILGSVSECYA | 0.767 ± 0.21 |
| NRIKWVKRFSIPFLTWYEDW | 0.499 ± 0.53 |
| NRNKVR | -0.2 ± 1.1 |
| NSATRREPSVVGLYWSVR | -2.42 ± 2.7 |
| NSCQNPSEGF | -0.376 ± 1.2 |
| NSCWRTGLQVPVSQHYNQTI | -0.492 ± 0.61 |
| NSGESLS | -0.186 ± 0.85 |
| NSHDKVGVSILWTGRSRLVA | -0.003 ± 0.45 |
| NSMLNDCHDKLIIGFSEGWS | 0.091 ± 0.47 |
| NSPGYDQVNAYVGFKRRTMS | 0.128 ± 0.64 |
| NSPPSDHSLKV | -0.195 ± 1.4 |
| NSRNVCFWYVNCCLVHGILG | 7.543 ± 0.067 |
| NSSCIIPMLWWGHNHHWC | 3.43 ± 0.12 |

| Substance | amyloid nucleation score |
| --- | --- |
| NSSHLLVMCDICYNFKVRTL | -1.69 ± 1.5 |
| NSWDISRSMNVLGNRVNRFP | -0.765 ± 0.37 |
| NSWKNADVWCNASMHGWSGW | 0.697 ± 0.72 |
| NTCLH | 1.63 ± 0.43 |
| NTGRISYFFVVSNPSPYSLR | 3.75 ± 0.058 |
| NTKWLMGSLSIIVCMPKSYW | 6.294 ± 0.045 |
| NTLCLHDFFHGLILWLSHQA | 1.01 ± 0.49 |
| NTNYGLIQFGILLCRFC | 6.814 ± 0.052 |
| NTSELRGNMSRHCKNSGGVI | -0.058 ± 0.62 |
| NTVFVIDESFGVMGWLGLKQ | 0.294 ± 0.82 |
| NVIGSGE | 1.08 ± 0.51 |
| NVLVAVFLFYVGPIGVAHCY | 1.12 ± 0.37 |
| NVLWGCQPNFVWDAWLRTEH | 0.777 ± 0.73 |
| NVMIAIPYVGVDKRGMVSGM | 5.22 ± 0.1 |
| NVSNLGSLMSTYGESCLVNF | inactive |
| NVTCSHPGFFYSIVKTYMFR | -0.877 ± 1.9 |
| NVTDAI | inactive |
| NVTNQCMLW | 0.509 ± 0.33 |
| NWCTNTRSIFTIRGTDAGTL | -0.721 ± 1.1 |
| NWFLYWT | 3.77 ± 0.11 |
| NWHGSLKPPYACEGALRVWR | 6.26 ± 0.08 |
| NWRSTLVSCLVYLPVLCCRC | 5.31 ± 0.058 |

| Substance | amyloid nucleation score |
| --- | --- |
| NWYVVYSWSEQIYREDSMGT | -0.52 ± 0.71 |
| NWYYRWELFVACFYLYSGWE | inactive |
| NYAQVLRTSFTNGVLTLKEE | -0.526 ± 0.86 |
| NYFAIPCFESWSWRMYKVGF | 0.186 ± 0.9 |
| NYFEKR | -0.261 ± 0.47 |
| NYFFAAACKKVVQGQPCSF | 1.59 ± 0.29 |
| NYFIVLSR | 2.09 ± 0.43 |
| NYFTVCLKGVRSDPPSVAKG | -0.596 ± 0.4 |
| NYILFWRTSSNFECPYP | 0.181 ± 0.24 |
| NYLLWVAHPIVSY | -0.502 ± 0.34 |
| NYNTIWMMKWFNGRWFLSAV | -0.293 ± 0.94 |
| PAHKLILFPPCCVGVWYSER | inactive |
| PALFVCSSFKLFMPNILGNQ | 6.16 ± 0.063 |
| PALWDLCVPKLIVANLIERS | -1.1 ± 1.4 |
| PALWWSMYSIQCPEEIGGAV | 0.405 ± 0.55 |
| PAVFCW | 0.387 ± 0.48 |
| PCINRFHGIGFHCRLWTVYV | 0.816 ± 0.98 |
| PCIVKYRNSGLHNYRIRLNR | -1.12 ± 0.97 |
| PCTMGMYIGAGHR | 0.418 ± 1 |
